Source: US20190055314A1 (ADAGENE, published 2019)

What follows are binders tested against T1, CD137-hisFc fusion protein (Sino Biological Cat 10041-H03H) (human, UniProt Q07011 24-186) (assay: BLI Octet, Fab).
T1 construct: Bought; also called recombinant human CD137 (fused with human Fc and His tag); not shown: His tag and human Fc

Row | Kd | koff | kon | Binder
1 | 6.2 nM | 0.00101 s⁻¹ | 162000 M⁻¹ s⁻¹ | Fab 5349 (Fab, V domains shown, Fab from E. coli; also called VH24/VL24) VH: EVQLVESGGGLVQPGGSLRLSCAASGYSITSGHYWAWIRQAPGKGLEWVSAISGSGSSTYYADSVKGRFTISRDNSKNTLYLQLNSLRAEDTAVYYCARGGSDTVLGDWFAYWGQGTLVTVSS VL: DIQLTQSPSSLSASVGDRVTITCRASQGISSSLAWYQQKPGKAPKLLIYDASNLETGVPSRFSGSGSGTDFTLTISSLQPEDFATYYCQQGYSTWTFGQGTKVEIKR
2 | 7.44 nM | 0.000475 s⁻¹ | 63800 M⁻¹ s⁻¹ | Fab 4076 (Fab, V domains shown, Fab from E. coli; also called VH4/VL4) VH: EVQLVESGGGLVQPGGSLRLSCAASGYSITSGYHWGWIRQAPGKGLEWVSAISGAGGSTYYADSVKGRFTISRDNSKNTLYLQLNSLRAEDTAVYYCARDGYGGSYFDYWGQGTLVTVSS VL: DIQLTQSPSSLSASVGDRVTITCQASQDISTFLAWYQQKPGKAPKLLIYDASSLESGVPSRFSGSGSGTDFTLTISSLQPEDFATYYCQQAYSIWTFGQGTKVEIKR
3 | 40.4 nM | 0.00231 s⁻¹ | 57200 M⁻¹ s⁻¹ | Fab 5417 (Fab, V domains shown, Fab from E. coli; also called VH39/VL39) VH: EVQLVESGGGLVQPGGSLRLSCAASGFSLSTSGVGVAWIRQAPGKGLEWVSSISGAGGTTYYADSVKGRFTISRDNSKNTLYLQLNSLRAEDTAVYYCARGGSTAVTGDWFDYWGQGTLVTVSS VL: DIQLTQSPSSLSASVGDRVTITCRASQGISPYLAWYQQKPGKAPKLLIYDASNRATGIPSRFSGSGSGTDFTLTISSLQPEDFATYYCQQGYSLWTFGQGTKVEIKR
4 | 16.1 nM | 0.00977 s⁻¹ | 605000 M⁻¹ s⁻¹ | Fab 5346 (Fab, V domains shown, Fab from E. coli; also called VH22/VL22) VH: EVQLVESGGGLVQPGGSLRLSCAASGFSLSTGGVGVGWIRQAPGKGLEWVSGISGYGSTTYYADSVKGRFTISRDNSKNTLYLQLNSLRAEDTAVYYCAREGSDAVAGDWFDYWGQGTLVTVSS VL: DIQLTQSPSSLSASVGDRVTITCRASQDIRSYLAWYQQKPGKAPKLLIYDASNRATGIPSRFSGSGSGTDFTLTISSLQPEDFATYYCQQGYSIWTFGQGTKVEIKR
5 | 1.76 nM | 0.000437 s⁻¹ | 248000 M⁻¹ s⁻¹ | Fab 5407 (Fab, V domains shown, Fab from E. coli; also called VH35/VL35) VH: EVQLVESGGGLVQPGASLRLSCAASGFSLSTGGVGVAWIRQAPGKGLEWVSSISGYGSTTYYADSVKGRFTISRDNSKNTLYLQLNSLRAEDTAVYYCAREGSDAVLGDWFGYWGQGTLVTVSS VL: DIQLTQSPSSLSASVGDRVTITCQASQDITTYLAWYQQKPGKAPKLLIYDASNRATGIPSRFSGSGSGTDFTLTISSLQPEDFATYYCQQGYYLWTFGQGTKVEIKR
6 | 9.87 nM | 0.000826 s⁻¹ | 83700 M⁻¹ s⁻¹ | Fab 5363 (Fab, V domains shown, Fab from E. coli; also called VH29/VL29) VH: EVQLVESGGGLVQPGGSLRLSCAASGYSISSGHYWTWIRQAPGKGLEWVSAISGSGSSTYYADSVKGRFTISRDNSKNTLYLQLNSLRAEDTAVYYCARGGSDAVLGDWFAYWGQGTLVTVSS VL: DIQLTQSPSSLSASVGDRVTITCRASQGVGSYLAWYQQKPGKAPKLLIYDASNLETGVPSRFSGSGSGTDFTLTISSLQPEDFATYYCQQGYQLWTFGQGTKVEIKR
7 | 12.6 nM | 0.00444 s⁻¹ | 352000 M⁻¹ s⁻¹ | Fab 3760 (Fab, V domains shown, Fab from E. coli; also called VH1/VL1) VH: EVQLVESGGGLVQPGGSLRLSCAASGFTFTSYGIHWVRQAPGKGLEWVSGISGAGDTTYYADSVKGRFTISRDNSKNTLYLQLNSLRAEDTAVYYCARERDYDFDYWGQGTLVTVSS VL: DIQLTQSPSSLSASVGDRVTITCRASQSVSSYLAWYQQKPGKAPKLLIYDASNLETGVPSRFSGSGSGTDFTLTISSLQPEDFATYYCQQSYSTSHTFGQGTKVEIKR
8 | 24.4 nM | 0.00746 s⁻¹ | 306000 M⁻¹ s⁻¹ | Fab 7080 (Fab, V domains shown, Fab from E. coli; also called VH43/VL43) VH: EVQLVESGGGLVQPGGSLRLSCAASGFSLSTGGVGVGWIRQAPGKGLEWVSYISGAGGTTYYADSVKGRFTISRDNSKNTLYLQLNSLRAEDTAVYYCAREGSDTVLGDWFAYWGQGTLVTVSS VL: DIQLTQSPSSLSASVGDRVTITCRASQGISSYLAWYQQKPGKAPKLLIYDASNLETGVPSRFSGSGSGTDFTLTISSLQPEDFATYYCQQYYTTPLTFGQGTKVEIKR
